{"source": "patent US20210292396A1", "note": "Values joined by “and” are separate entries in the source; they are usually repeats but may differ in a detail not shown here. Equal entries are not always repeated.", "data": [{"biological_target": "gp120 (isolate: 92BR020) (HIV)", "values": [{"substance": "PGT128 (antibody)", "EC50 (read off the curve)": "0.05 µg/mL"}, {"substance": "2G12 (antibody)", "EC50 (read off the curve)": "0.07 µg/mL"}, {"substance": "PGT135 (antibody)", "EC50 (read off the curve)": "0.05 µg/mL and 0.1 µg/mL"}, {"substance": "VRC01 (antibody)", "EC50 (read off the curve)": "0.07 µg/mL"}]}]}
